Values joined by “and” are separate entries in the source; they are usually repeats but may differ in a detail not shown here. Equal values may be shown once.
Experiments:
[1] = target: adiponectin secreted from isolated rat primary adipocytes (rat (endogenous in primary adipocytes)); assay: native gel or EMSA
[2] = target: the molecule itself; assay: non-reducing denaturing SDS/PAGE
native gel or EMSA [3] = target: the molecule itself; assay: native gel or EMSA
native gel or EMSA [4] = target: the molecule itself; assay: native gel or EMSA; remark: listed apart in the source
SEC = target: the molecule itself; assay: SEC

Molecule: adiponectin secreted from isolated rat primary adipocytes (natural protein)
- stoichiometry N [1]: 6 and 3

B1: FLAG epitope-tagged mouse adiponectin (natural protein, UniProt Q60994 18-247, looked up)
chain: EDDVTTTEELAPALVPPPKGTCAGWMAGIPGHPGHNGTPGRDGRDGTPGEKGEKGDAGLLGPKGETGDVGMTGAEGPRGFPGTPGRKGEPGEAAYVYRSAFSVGLETRVTVPNVPIRFTKIFYNQQNHYDGSTGKFYCNIPGLYYFSYHITVYMKDVKVSLFKKDKAVLFTYDQYQEKNVDQASGSVLLHLEVGDQVWLQVYGDGDHNGLYADNVNDSTFTGFLLYHDTN
- stoichiometry N [2]: 2
- stoichiometry N (native gel or EMSA [3]): 6 and 3

B2: adiponectin of differentiated 3T3-L1 adipocytes (natural protein, mouse (endogenous in 3T3-L1), UniProt Q60994 18-247, looked up)
chain: EDDVTTTEELAPALVPPPKGTCAGWMAGIPGHPGHNGTPGRDGRDGTPGEKGEKGDAGLLGPKGETGDVGMTGAEGPRGFPGTPGRKGEPGEAAYVYRSAFSVGLETRVTVPNVPIRFTKIFYNQQNHYDGSTGKFYCNIPGLYYFSYHITVYMKDVKVSLFKKDKAVLFTYDQYQEKNVDQASGSVLLHLEVGDQVWLQVYGDGDHNGLYADNVNDSTFTGFLLYHDTN
- stoichiometry N (native gel or EMSA [4]): 6 and 3

B3: adiponectin purified from bovine serum (natural protein, UniProt Q3Y5Z3 18-240, looked up)
chain: EDNMEDPPLPKGACAGWMAGIPGHPGHNGTPGRDGRDGTPGEKGEKGDPGLVGPKGDTGETGITGIEGPRGFPGTPGRKGEPGESAYVYRSAFSVGLERQVTVPNVPIRFTKIFYNQQNHYDGTTGKFLCNIPGLYYFSYHITVYLKDVKVSLYKNDKALLFTHDQFQDKNVDQASGSVLLYLEKGDQVWLQVYEGENHNGVYADNVNDSTFTGFLLYHNIVE
- stoichiometry N (SEC): 6

Source: article PMC3497731 (Bioscience Reports, 2012)
